Measured values from article PMC8200828, “Phylogenetic and Structural Analysis of NIN-Like Proteins With a Type I/II PB1 Domain That Regulates Oligomerization for Nitrate Response” (Frontiers in Plant Science, 2021).

What was measured:
[1] = molecular target: the molecule itself; assay: dynamic light scattering; protein at 2 mg/mL, after SEC, 25 °C; self-association
[2] = molecular target: the molecule itself; assay: SEC; Superdex S-75 in buffer C (20 mM Tris pH 8.8, 0.5 M NaCl, 10% glycerol, 5 mM GSH, 1 mM TCEP), calibrated with gel filtration standard markers; self-association

B1: Arabidopsis thaliana NLP7 (AtNLP7) PB1 domain, wild type (domain or fragment, UniProt Q84TH9 863-945, looked up)
chain: TVTIKASYKDDIIRFRISSGSGIMELKDEVAKRLKVDAGTFDIKYLDDDNEWVLIACDADLQECLEIPRSSRTKIVRLLVHDV
notes: NIN-like protein 7 (AtNLP7), Arabidopsis thaliana, PB1 domain at the C-terminus of AtNLP7; PCR-amplified from plasmid pDL2Nx-NLP7 PB1 with the printed primers PB1-EcoRI and PB1-HindIII, subcloned into pET28a; A thrombin cleavage site follows the N-terminal His6 tag; no cleavage step is described and the purified protein is called 6xHis-NLP7 PB1 (15.6 kDa); also called NLP7 PB1wt; 6xHis-NLP7 PB1 …
stoichiometry N [1]: 4 | stoichiometry N [2]: 2
